In PMC4742562, “Structure and Interactions of a Dimeric Variant of sHIP, a Novel Virulence Determinant of Streptococcus pyogenes” (Frontiers in Microbiology, 2016):

Key:
[1] = target: T1, HRGsingle peptide (single heparin-binding motif of histidine-rich glycoprotein) (human); assay: ITC; 0.5 mM HRGsingle peptide titrated into 0.05 mM sHIPwt or sHIPqp, 20 mM MES pH 5.5, 25°C; one independent binding site model; details: both partners purified
T1 construct: also called GHHPHG; source: synthetic peptide (Biosyntan GmbH, Berlin)

[2] = target: the molecule itself; assay: AUC; sedimentation velocity, 20°C, 50000 rpm, 20 mM MES pH 5.5; c(S) distribution compared with theoretical sedimentation coefficients (HYDROPRO)

B1: quadruple mutant protein sHIP, sHIPqp (natural protein)
chain: SMKQDQLIVEKMEQTYEAFSPKLANLIEALDAFKEHYEEYATLRNFYSSDEWFRLANQPWDDIPSGVLSEDLLFDMIGDHNQLAADIADLAPIMAKHM
notes: protein sHIP, S. pyogenes, UniProt Q99XU0, residues Lys3-Met98 with Leu84, Leu88, Tyr95 mutated to alanine and Cys65 to serine; Dimer by AUC and in the crystal; For NMR the protein was double-labelled (15N, 13C), grown in minimal medium; also called sHIPqp mutant; sHIP mutant; source: E. coli Rosetta BL21 (DE3), purified (IMAC, His-tag removed with TEV protease, reverse phase chromatography); not …
With B1 the Kd [1] was 2800 ± 300 nM and the “stoichiometry N” value [2] was 2.
